The values that follow come from patent publication US20170114420.

Common to all, as to assay: ELONA
Data set [1] has as its system Norovirus GI.7 VLP, capsid protein VP1 (Norovirus GI.7). To be noted: 1 uM aptamer, RT.
Data set [2] relates to Norovirus GI.4 VLP, capsid protein VP1 (Norovirus GI.4). To be noted: 1 uM aptamer, RT.
Data set [3] concerns Norovirus GII.12 VLP, capsid protein VP1 (Norovirus GII.12). To be noted: 1 uM aptamer, RT.
Data set [4] deals with Norovirus GII.3 VLP, capsid protein VP1 (Norovirus GII.3). To be noted: 1 uM aptamer, RT.
Data set [5] relates to Norovirus GII.4 (Grimsby) VLP, capsid protein VP1 (Norovirus GII.4 Grimsby). To be noted: 1 uM aptamer, RT.
Data set [6] deals with Norovirus GII.4 (Houston) VLP, capsid protein VP1 (Norovirus GII.4 Houston). To be noted: 1 uM aptamer, RT.
Data set [7] concerns Norovirus GI.6 VLP, capsid protein VP1 (Norovirus GI.6). To be noted: 1 uM aptamer, RT.
Data set [8] relates to Norovirus GII.1 VLP, capsid protein VP1 (Norovirus GII.1). To be noted: 1 uM aptamer, RT.
The test system of data set [9] is Norovirus GII.17 VLP, capsid protein VP1 (Norovirus GII.17). To be noted: 1 uM aptamer, RT.
Data set [10] deals with Norovirus GI.8 VLP, capsid protein VP1 (Norovirus GI.8). To be noted: 1 uM aptamer, RT.
Data set [11] has as its system Norovirus GII.6 VLP, capsid protein VP1 (Norovirus GII.6). To be noted: 1 uM aptamer, RT.
In data set [12] the test system is Norovirus GII.7 VLP, capsid protein VP1 (Norovirus GII.7). To be noted: 1 uM aptamer, RT.
The test system of data set [13] is Norovirus GII.4 (Sydney) VLP, heat-denatured (80 C, 5 min) (Norovirus GII.4 Sydney). To be noted: VLP denatured 80 C 5 min.

As to “AGTATACGTATTACCTGCAGCCACCAGTGTGTTGAGGTTTGAGCACACTGATAGAGTGTCACGATATCTCGGAGATCTTGC [SMV-19]”, the binding signal in data set [1] worked out at 10.3 T/N ratio; in data set [2], 1.7 T/N ratio; in data set [3] it was 1.5 T/N ratio; in data set [4], 1.7 T/N ratio; in data set [5], 9.6 T/N ratio; in [6], 12.5 T/N ratio. Also, the binding signal in data set [7] was determined as 3.7 T/N ratio; in [8], 7.1 T/N ratio; in [9], 3 T/N ratio; in [10], 1.7 T/N ratio; in data set [11], 1.8 T/N ratio; in data set [12], 4 T/N ratio.

As to “AGTATACGTATTACCTGCAGCCATCTGTGTGAAGACTATATGGCGCTCACATATTTCTTTCCGATATCTCGGAGATCTTGC [SMV-25]”, the binding signal in data set [1] was determined as 3.5 T/N ratio; in data set [2], 5.6 T/N ratio; in [3], 1.9 T/N ratio; in data set [4], 5.4 T/N ratio; in [5], 10.4 T/N ratio; in data set [6] it was 11 T/N ratio. The binding signal in data set [7] amounted to 2.4 T/N ratio; in [8], 9.4 T/N ratio; in [9], 2 T/N ratio; in data set [10] it was 6.2 T/N ratio; in data set [11], 7.3 T/N ratio; in [12], 9.1 T/N ratio.

As to “AGTATACGTATTACCTGCAGCCCATGTTTTGTAGGTGTAATAGGTCATGTTAGGGTTTCTGCGATATCTCGGAGATCTTGC [SMV-21]”, the binding signal worked out at 8.1 T/N ratio in data set [1]; 4.3 T/N ratio in data set [2]; 6.6 T/N ratio in [3]; 11.8 T/N ratio in data set [4]; 6.4 T/N ratio in [5]; 11.3 T/N ratio in data set [6]. Also, the binding signal in [7] worked out at 3.8 T/N ratio; in [8] it was 8.6 T/N ratio; in data set [9], 12.2 T/N ratio; in [10], 4.6 T/N ratio; in data set [11], 3 T/N ratio; in data set [12], 13.5 T/N ratio.

Turning to “AGTATACGTATTACCTGCAGCTGACCGAGTGTCTGGTCATTTTCGATGTCTGTTGTTAGGCCGATATCTCGGAGATCTTGC [SMV-26]”, the binding signal came to 1.8 T/N ratio in data set [1]; 1.1 T/N ratio in data set [2]; 2.4 T/N ratio in data set [3]; 2.4 T/N ratio in data set [4]; 3.2 T/N ratio in data set [5]; 2.8 T/N ratio in data set [6]. Besides, the binding signal worked out at 1.5 T/N ratio in [7]; 2.1 T/N ratio in data set [8]; 1.3 T/N ratio in data set [9]; 1.2 T/N ratio in [10]; 2.8 T/N ratio in [11]; 2.8 T/N ratio in [12].

In the case of “AGTATACGTATTACCTGCAGCTGGGAAGAGGTCCGGTAAATGCAGGGTCAGCCCGGAGAGCGATATCTCGGAGATCTTGC [M6-2]”, the binding signal (VLP/no VLP ratio) in [1] stood at 7.56; in data set [2] it was 3.36; in [3], 5.55; in data set [4] it was 3.16; in data set [5], 11.5; in [6], 13. The binding signal (VLP/no VLP ratio) in [7] was 2.75; in data set [8], 4.52; in [9] it was 5.24; in [10], 4.55; in data set [11], 4.4; in data set [12] it was 8.02. The binding signal (% of untreated VLP signal) in data set [13] stood at 1.98.

“AGTATACGTATTACCTGCAGCTGTTTATGGGGATAAACGTATCTAATTCGTGTACTAATCACGATATCTCGGAGATCTTGC [M1]”: the binding signal (VLP/no VLP ratio) in data set [1] was 7.32; in data set [2] it was 3.17; in data set [3], 4.47; in data set [4], 2.94; in data set [5] it was 7.59; in data set [6], 10.4. The binding signal (VLP/no VLP ratio) stood at 1.98 in data set [7]; 3.59 in [8]; 3.94 in data set [9]; 2.61 in [10]; 2.38 in data set [11]; 7.47 in data set [12].
